The source of these data is patent publication US20260022175A1 (Chugai, published 2026).

B1: H240-Kn461/L73-k0//H240-Hl443/L73-k0 (antibody)
heavy 1: QDQLVQSGAEVKKPGASVKVSCKASGFNIKDTYIQWVRQAPGQGLEWMGRIDPLRKQTKYREKFEGRVTITADTSTNTAYMELSSLRSEDTAVYYCVRSGREFDYWGQGTLVTVSSASTKGPSVFPLAPSSKSTSGGTAALGCLVKDYFPEPVTVSWNSGALTSGVHTFPAVLQSSGLYSLSSVVTVPSSSLGTQTYICNVNHKPSNTKVDKKVEPKSCDKTHTCPPCPAPEFQWGPMVFLFPPKPKDVLMISRTPEVTCVVVDVSDEEPEVKFNWYVDGVEVHNAKTKPREEQYNATYRVVSVLPVLHQDWLNGKEYKCKVSNDALPAPEEKTISKAKGQPREPQVCTLPPSRDELTKNQVSLWCLVKGFYPSDIAVEWESNGQPENNYKTTPPVLDSDGSFFLYSKLTVDKSRWQQGNVFSCSVMHEALHNHYTQKSLSLSP
heavy 2: QDQLVQSGAEVKKPGASVKVSCKASGFNIKDTYIQWVRQAPGQGLEWMGRIDPLRKQTKYREKFEGRVTITADTSTNTAYMELSSLRSEDTAVYYCVRSGREFDYWGQGTLVTVSSASTKGPSVFPLAPSSKSTSGGTAALGCLVKDYFPEPVTVSWNSGALTSGVHTFPAVLQSSGLYSLSSVVTVPSSSLGTQTYICNVNHKPSNTKVDKKVEPKSCDKTHTCPPCPAPELLAGPSVFLFPPKPKDVLMISRTPEVTCVVVDVSHEEPEVKFNWYVDGVEVHNAKTKPREEQYNATYRVVSVLPVLHQDWLNGKEYKCKVSNDALPAPEEETISKAKGQPREPQVYTLPPSRCELTKNQVSLSCAVKGFYPSDIAVEWESNGQPENNYKTTPPVLDSDGSFFLVSKLTVDKSRWQQGNVFSCSVMHEALHNHYTQKSLSLSP
light: DIQMTQSPSSLSASVGDRVTITCRASQDIHKYIAWYQQKPGQAPRLLIQYTSTLQPGVPSRFSGSGSGTDYTFTISSLQPEDIATYYCLQYEQLRTFGGGTKVEIKRTVAAPSVFIFPPSDEQLKSGTASVVCLLNNFYPREAKVQWKVDNALQSGNSQESVTEQDSKDSTYSLSSTLTLSKADYEKHKVYACEVTHQGLSSPVTKSFNRGEC
notes: also called EGL-ART8; ART8; copies: 1 + 1 + 2
B2: H240-Kn494/L73-k0//H240-Hl514/L73-k0 (antibody)
heavy 1: B1 heavy 1 with D325K
heavy 2: B1 heavy 2 with A235G
light: B1 light
notes: also called EGL-ART10; ART10; copies: 1 + 1 + 2
B3: H240-Kn496/L73-k0//H240-Hl516/L73-k0 (antibody)
heavy 1: B1 heavy 1 with D325K, E331I
heavy 2: B1 heavy 2 with A235G, E331I
light: B1 light
notes: also called EGL-ART11; ART11; copies: 1 + 1 + 2

Positions count from the first letter of the chain named.

T1 sequence (P02745 23-245 limits assumed, chain 1 of 3): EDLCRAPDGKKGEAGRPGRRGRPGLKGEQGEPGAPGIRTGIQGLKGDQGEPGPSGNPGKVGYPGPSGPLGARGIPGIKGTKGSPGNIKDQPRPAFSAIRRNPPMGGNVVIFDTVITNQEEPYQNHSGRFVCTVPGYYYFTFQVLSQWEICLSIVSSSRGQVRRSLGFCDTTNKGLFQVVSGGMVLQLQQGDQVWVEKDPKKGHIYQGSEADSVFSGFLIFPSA
T1 sequence (P02746 28-253 limits assumed, chain 2 of 3): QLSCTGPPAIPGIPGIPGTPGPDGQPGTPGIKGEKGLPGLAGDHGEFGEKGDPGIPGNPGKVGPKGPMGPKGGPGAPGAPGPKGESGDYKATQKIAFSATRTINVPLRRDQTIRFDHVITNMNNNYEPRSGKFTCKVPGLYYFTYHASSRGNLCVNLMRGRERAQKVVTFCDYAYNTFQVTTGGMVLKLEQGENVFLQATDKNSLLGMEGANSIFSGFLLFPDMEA
T1 sequence (P02747 29-245 limits assumed, chain 3 of 3): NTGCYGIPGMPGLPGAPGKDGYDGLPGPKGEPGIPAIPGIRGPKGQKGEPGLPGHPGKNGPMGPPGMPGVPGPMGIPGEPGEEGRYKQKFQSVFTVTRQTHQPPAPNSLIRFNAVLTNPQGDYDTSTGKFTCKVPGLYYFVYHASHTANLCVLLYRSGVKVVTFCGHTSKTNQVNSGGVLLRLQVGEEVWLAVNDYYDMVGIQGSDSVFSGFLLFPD

This experiment concerns the target T1, human C1q protein (Calbiochem) (human, UniProt P02745 23-245; P02746 28-253; P02747 29-245).
T1 construct: bought; also called hC1q
In words: ELISA, antibody on the plate, hC1q 3 µg/mL. For orientation: ELISA stands for enzyme-linked immunosorbent assay.
Procedure: The antigen used was a human C1q protein (hC1q).
First, a 96-well maxisorp plate (Thermo fisher) was coated at 4° C. overnight with 50 μL of solutions containing each antibody prepared at 30, 10, 3, 1, 0.3, 0.1, and 0.03 μg/mL in PBS. Each well of the plate was washed with Wash buffer to remove the antibody not bound to the plate, and then the wells were blocked with 200 μL of Blocking/dilution Buffer at room temperature for 2 hours or longer. After the Blocking/dilution Buffer was removed from each well, hC1q (Calbiochem) prepared such that the final concentration was 3 μg/mL in Blocking/dilution Buffer was added at 50 μL per well. The plate was then allowed to stand at room temperature for 1 hour to allow hC1q to bind to the antibody within each well. After washing with Wash Buffer, 50 μL of an HRP-conjugated anti-hC1q antibody (AbDSerotec) diluted with Blocking/dilution Buffer was added to each well, and the plate was incubated while standing for 1 hour. After washing with Wash Buffer, TMB single solution (Invitrogen) was added. The color development reaction of the solution in each well was stopped by addition of Stop Buffer, and then the developed color was measured by absorbance at 450 nm and 690 nm.
For B1, the binding result is recorded as “binds”.
On to B2, for which the binding result is given as “binds”.
Take B3: the binding result is “binds”.
